# Experimental data taken from the DeepSol protein solubility set.
# Test: soluble on expression in E. coli; label from the status in PepcDB or PDB records
row,Sequence,soluble on expression in E. coli
1,MSLTLVDIHCHILPGIDDGSKDWETSIKLARDAVKDGITHAVCTPHTLNGKYLNHKDDVIRLTENFQDMLDEAKIPLTVFPGQEVRISGDLPDALDNDDILFLDEEGQYMLLEFPSDDVPTYAKDMIFSIQQRGITPIVVHPERNSRILKEPHILQELIEQGCLVQITASSYVGTFGQKIEEMSRRFIEAGQCACFASDAHDLPKRQYEYSAALKKLSNEFGSGRAQEFEDNARAIVNGDNVQLNWRPLKKKKKFWLFEGHHHHHH,not soluble
2,MSLNKSVIGTKQMVVSPHYLASQAGNRILDKGGNAFDAAVAVSACLAVVYPHMTGLGGDSFWLTFHQETKAVKVYNGSGRSGKNVTRDVYKGKSAIPLRGIDSAITVPGMVDSWDAVLKEYGRLSLADVLEPARDYAQNGFPVSADQCRHTEKNIELLASTPYTADIFTRRGKAPVPGERFVQKELADSLNLIAEKGRSAFYEGDLAQRIVSHLQNNGSYMTIDDFKAHRGEWAAPVSSDYRGYSVYQAPPNSQGFTGLLTLNILENYDFTQIEHGSFEYYHVLVEALKKSFLDRDAVLTDPAFADIPLERLLDKRYAKQLAEEIGYLAIPAESRPVGSDTAYAAVIDADGNAVSFIQSLYFEFGSAVTAGDTGILLQNRGSFFSLDENHVNTLEPRKRTFHTLMPAMVCKGGKPKILYGTQGGEGQPQTQTAIITRMLDYGMHPQQAISEPRWVWGRTWGEEYEGLRVEGRFTDKTIQKLKDSGHLVEVVGDYDPLMGQAAAIKVDEEGFLQGGADPRGDGAAVGEGHHHHHH,not soluble
3,MIMLKEYSLKALQTAINQAMKLDEQMPQKLQKLDGKTLEMVITPLNVNFYIRFKGSEMQLLHRIDGRPDTIIHSNPIGLIRLSLLPTSKARSLFNDKIRISGDIELGQSVKKLFDEIDIDWEGHLAHFTGDVVAHQIGSFVRKGLEFKNQFSTSMQQNITEFLQEELRICPSRNELEDFFAEVDELVLSVDRLQAHINNLMSDDEGN,not soluble
4,MAYTEEQIENIKTRILTALEEVIDPELGIDIVNLGLIYEIRFDGDTGQTEIDMTLTTMGCPLADLLTDQIYDAMIEVPEVTDTEVKLVWYPAWTVEKMSRYARIALGIK,not soluble
5,MATIIFAGRSNVGKSTLIYRLTGKKVRRGKRPGVTRKIIEIEWKNHKIIDMPGFGFMMGLPKEVQERIKDEIVHFIEDNAKNIDVAVLVVDGKAAPEIIKRWEKRGEIPIDVEFYQFLRELDIPTIVAVNKLDKIKNVQEVINFLAEKFEVPLSEIDKVFIPISAKFGDNIERLKNRIFEVIRERQGRRV,soluble
6,MAHHHHHHMYNILQFVLKAYSIQNEEPSCDVENVKDLLNDQLCYVLYNITNYSSKYQWILILWAPEKNSILIDDIHENKEKKNNFIHIVDKEIYKYNNASKKINKLLYYSFKQNFLDIIFNNYDIPLFEINNFVMLEKCIHDCNNKYYNYTNCPTLLNREKTKPKNDSFDIYNQYNLQKYYLLNIQLRSINNIIILNESSLCHDMKRLLEEPNICLNLFYIDVHNYKIISTHLNIDNIEQVHSIIKENKIFYVIYKVLDTYTFFYICNEICTNTKQKFLYSFFKPYLLEYLKKIKNIPIFLSIELSKTKHLIRFINADLKKNKNKNSN,soluble
7,MSLEENDDDMVGMVDLKIDLERVVRNAVDDAKEVCTQHYGDCPDVKFIISKDANTMRFPHMSSTITYIVVELMKNAFRATVESHMERNSAGMVDCSNMPPVEVLVNIKKNAKHACICVSDEGLGMTRAQCELAMTYAYTTVKRPVIQHGADEDPEEERNGVSPLAGYGFGLPMSRVYAQAFGGDLVMSTMEGYGTRVYYYIKEGHHHHHH,soluble
8,MGHHHHHHSHMIMQEIFLCSISNVRSGDCKEDCAYCTQSSHHQGAIKRYKFKDEKVVLQEARALRQLGALGFCLVTSGRELDDEKCEYIAKLAKAINQEELGLHLIACCGRADLEQLEFLRDAGIHSYNHNLETSQNFFPKICSTHTWEERFITCENALRAGLGLCSGGIFGLNESWEDRIEMLRALASLSPHTTPINFFIKNPVLPIDAETLSADEALECVLLAKEFLPNARLMVAGGREVVFKDNDKKEAKLFEYGINAVVLGDYLTTKGKAPKKDIEKLLSYGLTMATSCH,soluble
9,MSLREDLLEETRKSCQKKIDELEDALSELKKETSQKDHHIKQLEEDNNSNIEWYQNKIEALKKDYESVITSVDSKQTDIEKLQYKVKSLEKEIEEDKIRLHTYNVMDETINDDSLRKELEKSKINLTDAYSQIKEYKDLYETTSQSLQQTNSKLDESFKDFTNQIKNLTDEKTSLEDKISLLKEQMFNLNNELDLQKKGMEKEKADFKKRISILQNNNKEVEAVKSEYESKLSKIQNDLDQQTIYANTAQNNYEQELQKHADVSKTISELREQLHTYKGQVKTLNLSRDQLENALKENEKSWSSQKESLLEQLDLSNSRIEDLSSQNKLLYDQIQIYTAADKEVNNSTNGPGLNNILITLRRERDILDTKVTVAERDAKMLRQKISLMDVELQDARTKLDNSRVEKENHSSIIQQHDDIMEKLNQLNLLRESNITLRNELENNNNKKKELQSELDKLKQNVAPIESELTALKYSMQEKEQELKLAKEEVHRWKKRSQDILEKHEQLSSSDYEKLESEIENLKEELENKERQGAEAEEKFNRLRRQAQERLKTSKLSQDSLTEQVNSLRDAKNVLENSLSEANARIEELQNAKVAQGNNQLEAIRKLQEDAEKASRELQAKLEESTTSYESTINGLNEEITTLKEEIEKQRQIQQQLQATSANEQNDLSNIVESMKKSFEEDKIKFIKEKTQEVNEKILEAQERLNQPSNINMEEIKKKWESEHEQEVSQKIREAEEALKKRIRLPTEEKINKIIERKKEELEKEFEEKVEERIKSMEQSGEIDVVLRKQLEAKVQEKQKELENEYNKKLQEELKDVPHSSHISDDERDKLRAEIESRLREEFNNELQAIKKKSFDEGKQQAMMKTTLLERKLAKMESQLSETKQSAESPPKSVNNVQNPLLGLPRKIEENSNSPFNPLLSGEKLLKLNSKSSSGGFNPFTSPSPNKHLQNDNDKRESLANKTDPPTHLEPSFNIPASREGHHHHHH,soluble
10,MSLKRIVVANDLVGVGKVALSASIPLMASCLLEQVLLPTCLLSSHTGGGQNPVKHTTSSILDVFLTDWDNKRIKFDGIFIGYFTTTRDGQKLLEWLSRKQLPLILDPIMADNGKLYQGFSQKHIEIMIKLTQKAELVLPNISEACLLTQTAYLAKNYDEEDIRQVARKLAKLGPKQVVISGISFEEGSIGFAYYQSDSDQLTFHFGKQFPYHFYGTGDIASAIITAGFYYQLPLTQILDLVVSFLEKVLQNTLTLKRDLILGVAYESHLNYLTEGHHHHHH,not soluble
11,HHQELCTKGDDALVTELECIRLRISPETNAAFDNAVQQLNCLNRACAYRKMCATNNLEQAMSVYFTNEQIKEIHDAATACDPEAHHEHDH,soluble
12,MAHHHHHHMAGEPYLVYLLRCLAHQSGLTQLSPHFAVPTTEIDSDDGGAVAVVTAGHSANHPSRLFWERCVVVGVRVEPTTKNLLQTGWETQPCSHCVSQDGAAADAHDSPSRRSRLCVLPLLYGGTQCGECGHALSLVPTWTRALYLVLQRRDRSRAAAVAYGEEVHRHLWLGVTIDALLYTSATEQQQQLLVVHAAAGPAAAAPSATLPCAETTKGAFHIICQDERVNRLGLKWGDGTAFSAAANLHDVARRVAPQLQGQAHVKRLLLLVVLYIVYYGSHPAAAGSHRHPLHVLLVGPAKTGKSALLREVAQLIGLEAEVLDSTVVRTGGSGGAAGGSSFSAALPIRRSAVLMAGSGMTASTLVLDQLPSTAGGAAAMAPLLEAMERGHGCGAASGEGDAAAGGPDVHELPSTIIAAAGEESAAAVQLAPYFSLLAAVAPTNSLDDTAIISQDVVAASRARSSHSRATSRSMSRATQLSASSPHHSQRGPSISQSTSHRADPSSLSERLTHEDVCYLVRRAAEPVLLNSVVSHAACYDAFIDKLVDCAGLLEETQPSVCHALPPPSACRGQHRVGLPSAACDSLRAAPLAIDEHLRILCALSRARALLEHAEVLRDAGWTAQMRDEVWALYHGHLVAFADLMQRRSCSSGAMASRDPAEVLRTTSWSSSFFDACGGSTAAPAPAGYPSLSRFSGDAAALGRAWKGRMRAMSSREGLGLWHPQKTPSKKRCRLMFVEALRQRQCLSAQVESAVPPPEVEHVFGLLGGSSAFGDPLDVVISQMQEEGLLLRRPGGWRSL,not soluble
13,MASIKLYFDKRVNRKDGKFPLKINVTHKRQQALINLGVLLSPDQWDSTKGKVINGPNKSFLNGYISQRVHCAETELLNLRIAGKLDLMTGKQFKEHLQRILLRGKLEEKQEETGCSFVQYYTRFVEGKKNPQTKAVYQYTLDRICRFVDVPDKFRFEDVTYAWLKSFEIHLSETSKVNSISIHMRNIRAVFNDALNTETISCYPFRRFKIKQEATAKRALTPEELVTLRDYPCEEHQKQYVDIFMLIFYLVGINTVDLCRLEKIRNGRIEYRRAKTKKIYNIKVEPEAAEIIERYKGSKYLLNILERYKNYKDYAHRLNENLQEIGSVELVEKVINGKRRRVKKRFPLFPELTVYWARHTWATIAHKIGVSKDVISLALGHEFGCKTTSIYIDYDMEKVDKANRQVLDYLENLK,not soluble
14,MTDNTAVRRRYEKSFTERPGFTEDEIEEIREAFNLLDTDGTGTIDPKEIKCAMQSLGLDAKNPMIFRMIADLEKDGYSSIDFEEFMEVITSKLGNKDTREGIQRIFNLFDDDKTGSISLKNLKRVAKELGETLTDEELRDMIDRADSKGEGEISFEDFYTIMTKKSFL,not soluble
15,MTTLTAQQIACVYAWLAQLFSRELDDEQLTQIASAQMAEWFSLLKSEPPLTAAVNELENRIATLTVRDDARLELAADFCGLFLMTDKQAALPYASAYKQDEQEIKRLLVEAGMETSGNFNEPADHLAIYLELLSHLHFSLGEGTVPARRIDSLRQKTLTALWQWLPEFVARCRQYDSFGFYAALSQLLLVLVECDHQNR,soluble
16,MGSDKIHHHHHHACTDGINETVISAYQLPVLPEPSYKFSRNGESSVNVLECGFLKSPIDRIFSEYMNEARMSTKRDYDEALRIYHEGNFGLKPQKEVSASSKHLKDRDKILKDIDAWFETSARIAGLGANIPSYEHRNREAVKGLTGYVGNGIGDKDICYVDERGIAVAEVYKYAIMGAIYLDKILNIHLSEQILENNEVLVRNDLTQLLPGHNYTELEHHWDLAYGYYDFWKTLAQSDGLPALKDCHLRISRSFVKGRALMTTSQYDEMRLQADTIRQELSRVVAVRAMHLLVGPNTLANLKENPRRAFRLLSQAYGLIYAAQFARNMEGKSFLTNEETGILLHELEKGDGLWDKERLLGREQTEGALYNLAVRIGEKFDVSPEDIKK,not soluble
17,MAHHHHHHMTVHLLWIINQSGQLIAKSSFTAPENIGELGAKPDLQLTMSSILFSTYGMSQELTPNANPVDSAGMTLVECEEHNIHIYETPTLVKFVLVSDSRTRECNALFRELHSLYVEYVMKNPFHIVDEGGIGQPIRIAAFTGAVKRAVDRYHAAGVSNATRK,not soluble
18,MSLNEPLPDRQTELPAVKKENHGEYLQPRDLSKIPNTAFGDQVKRGYSLFVNSQQMRGKYVGNEQNCVNCHMEAGRKANAAPLWAAYMAYPAYRKKNDRVNSYADRIQGCFEYSMNGKAPAYDSPEIVALSAYAYWLAMGGLLDEGHHHHHH,soluble
19,MGSDKIHHHHHHMLSVPPDKSITHRALILSALAETESTLYNLLRCLDTERTHDILEKLGTRFEGDWEKMKVFPKPFAEPIEPLFCGNSGTTTRLMSGVLASYEMFTVLYGDPSLSRRPMRRVIEPLEMMGARFMARQNNYLPMAIKGNHLSGISYKTPVASAQVKSAVLLAGLRASGRTIVIEPAKSRDHTERMLKNLGVPVEVEGTRVVLEPATFRGFTMKVPGDISSAAFFVVLGAIHPNARITVTDVGLNPTRTGLLEVMKLMGANLEWEITEENLEPIGTVRVETSPNLKGVVVPEHLVPLMIDELPLVALLGVFAEGETVVRNAEELRKKESDRIRVLVENFKRLGVEIEEFKDGFKIVGKQSIKGGSVDPEGDHRMAMLFSIAGLVSEEGVDVKDHECVAVSFPNFYELLERVVIS,not soluble
